This passage reports Kd results from article PMC7113306.

In this assay the target is T1, ALK2-Fc, Q04771.
T1 chain: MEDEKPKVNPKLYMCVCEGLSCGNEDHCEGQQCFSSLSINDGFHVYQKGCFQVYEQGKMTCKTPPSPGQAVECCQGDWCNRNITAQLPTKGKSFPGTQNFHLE
The assay can be described thus: SPR. The conditions noted are these: ligand; chains chain; remark: other sources report otherwise.

By Kd is commonly meant the free concentration of one partner at which half of the binding sites on the other are occupied at equilibrium, for simple one-to-one binding. Low values mean a tighter complex, high ones a looser complex.

B1: BMP9 GF-domain (bone morphogenetic protein 9 growth factor domain), Q9UK05 320-429 (protein)
chain: SAGAGSHCQKTSLRVNFEDIGWDSWIIAPKEYEAYECKGGCFFPLADDVTPTKHAIVQTLVHLKFPTKVGKACCVPTKLSPISVLYKDDMGVPTLKYHYEGMSVAECGCR
B1 yielded a Kd of 83 nM. That is a double-digit nanomolar value.
